Results on 1 molecule are retold here after patent publication US20210221894A1 (DRAGONFLY THERAPEUTICS, published 2021).

The target in one assay is T1, human DLL3-His (human, UniProt Q9NYJ7 27-492).
T1 construct: also called hDLL3
T1 sequence: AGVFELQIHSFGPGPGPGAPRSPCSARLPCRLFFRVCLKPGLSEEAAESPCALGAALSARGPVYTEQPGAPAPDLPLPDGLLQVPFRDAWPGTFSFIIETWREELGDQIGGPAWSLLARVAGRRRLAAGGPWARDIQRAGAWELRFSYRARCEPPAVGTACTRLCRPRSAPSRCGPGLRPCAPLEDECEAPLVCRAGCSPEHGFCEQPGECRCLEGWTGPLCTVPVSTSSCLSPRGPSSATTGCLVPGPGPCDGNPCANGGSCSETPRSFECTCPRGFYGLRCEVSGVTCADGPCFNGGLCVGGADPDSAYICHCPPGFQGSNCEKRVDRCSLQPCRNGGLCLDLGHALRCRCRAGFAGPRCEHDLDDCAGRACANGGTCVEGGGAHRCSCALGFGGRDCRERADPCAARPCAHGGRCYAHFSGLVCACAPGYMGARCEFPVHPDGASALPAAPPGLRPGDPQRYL
Description: SPR (Biacore 8K), 37 C, m5E7 captured on anti-mouse Fc, DLL3-His 0.411-300 nM injected, 1:1 fit. From the text:
The kinetics of binding of different humanized variants and parental murine 5E7 antibody to human DLL3-His was studied by Surface Plasmon Resonance using a Biacore 8K instrument. Briefly, anti-hFc and anti-mFc IgG proteins were covalently immobilized onto different channels of CMS chip to allow simultaneous analysis of human and murine antibodies. m5E7 was captured on the anti-mouse Fc channel and humanized variants were captured on the anti-human Fc channel at a desired capture level of […] in HBS-EP+ buffer supplemented with 0.1% BSA. Three buffer blanks and human DLL3-His (analyte) at concentrations 0.411-300 nM (in three fold dilutions) were injected over the surface with captured murine or humanized 5E7 for 300 second association time and let dissociate for 600 second at a flow rate of 30 μL/min. The surfaces were subjected to regeneration with three 20-second pulses of 10 mM glycine pH 1.70 at a flow rate of 100 μL/min between every concentration of analyte. The experiment was conducted at 37° C. Data were double referenced and a 1:1 fit model was applied to the sensorgrams in the Biacore Insight Evaluation software.
The kinetic parameters of human DLL3-His binding to murine and humanized variants of 5E7 antibody variants were calculated and shown in Table 39.
(SPR reads the build-up and loss of mass on a sensor chip optically.)

Assay [1] deals with T2, recombinant human DLL3 (ELISA coat) (human, UniProt Q9NYJ7 27-492).
T2 sequence: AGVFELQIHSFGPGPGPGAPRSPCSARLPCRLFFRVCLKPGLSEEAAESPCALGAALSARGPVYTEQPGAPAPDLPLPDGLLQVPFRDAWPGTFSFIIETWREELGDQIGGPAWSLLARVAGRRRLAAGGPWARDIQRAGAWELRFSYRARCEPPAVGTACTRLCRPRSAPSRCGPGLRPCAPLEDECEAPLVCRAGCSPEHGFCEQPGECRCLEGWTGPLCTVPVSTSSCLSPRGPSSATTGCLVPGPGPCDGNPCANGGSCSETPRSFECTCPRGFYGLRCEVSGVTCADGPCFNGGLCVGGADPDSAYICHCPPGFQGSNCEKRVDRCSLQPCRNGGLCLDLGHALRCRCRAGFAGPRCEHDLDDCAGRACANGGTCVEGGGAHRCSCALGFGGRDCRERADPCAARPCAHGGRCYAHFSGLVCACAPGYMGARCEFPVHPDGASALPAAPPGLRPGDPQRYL
Description: ELISA, plate coated with recombinant human DLL3 0.5 µg/ml, anti-mouse IgG-HRP. The procedure, abridged: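 Antibody binding measured on plates coated with recombinant human DLL3 at 0.5 μg/ml, detected with anti-mouse IgG-HRP and TMB substrate. Signals normalized to the matching positive control antibody; EC₅₀ calculated from binding curves.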
In general terms: In an ELISA, binding on a coated surface is turned into a signal by an enzyme label.

Assay [2] deals with T3, extracellular domain (ECD) of human DLL3 (AdipoGen Life Sciences) (human, UniProt Q9NYJ7 27-492).
T3 construct: Bought and further purified by size exclusion chromatography; also called hDLL3 ECD; DLL3 ECD
T3 sequence: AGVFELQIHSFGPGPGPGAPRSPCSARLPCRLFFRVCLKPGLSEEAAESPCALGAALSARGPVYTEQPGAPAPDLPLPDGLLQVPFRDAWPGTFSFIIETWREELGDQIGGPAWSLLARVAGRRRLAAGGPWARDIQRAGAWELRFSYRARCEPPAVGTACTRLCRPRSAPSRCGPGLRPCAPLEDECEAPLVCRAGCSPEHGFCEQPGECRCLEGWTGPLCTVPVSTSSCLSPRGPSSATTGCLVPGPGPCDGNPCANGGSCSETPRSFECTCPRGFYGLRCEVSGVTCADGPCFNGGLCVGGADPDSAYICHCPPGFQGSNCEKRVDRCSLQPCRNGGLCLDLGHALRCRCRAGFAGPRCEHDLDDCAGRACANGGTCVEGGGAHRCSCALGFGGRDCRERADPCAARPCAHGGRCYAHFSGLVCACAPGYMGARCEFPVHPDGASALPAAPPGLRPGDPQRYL
As to the kind of experiment: SPR (Biacore 8K), 37 C, antibody captured on anti-mouse Fc, DLL3 ECD injected, 1:1 fit. An excerpt: (§1) The binding kinetics of different anti-DLL3 antibodies to recombinant proteins of different domains of human DLL3 were studied by surface plasmon resonance (SPR) using a Biacore™ 8K instrument. These anti-DLL3 antibodies were produced from mouse hybridomas, and each included a heavy chain variable region and light chain variable region described herein. Briefly, antibodies recognizing human IgG Fc and antibodies recognizing mouse IgG Fc were immobilized on different channels of a Biacore™ 8K chip to allow simultaneous analysis of human and murine anti-DLL3 antibodies. Murine anti-DLL3 antibodies were captured on the anti-mouse Fc channel of the Biacore chip. The human anti-DLL3 antibody from Stemcentrx (San Francisco, Calif.) was used as a control and was captured onto anti-human Fc channel of the Biacore™ chip. Different concentrations of DLL3 ECD, DLL3 N-terminal domain, EGF2-6, EGF3-6, EGF4-6, or EGF5-6 domains of DLL3 were injected. Experiments were performed at 37° C. Biacore™ 8K evaluation software was used for all data analysis. To obtain kinetic rate constants double-referenced data were fit to a 1:1 interaction model using Biacore™ 8K Evaluation software (GE Healthcare, Marlborough, Mass.). The equilibrium binding constant KD was determined by the ratio of binding rate constants kd/kₐ.
Table 36 lists the calculated binding kinetics (KD). […] Stemcentrx anti-DLL3 antibody was used as a control.

Assay [3] has as its target T3, extracellular domain (ECD) of human …. Description: SPR (Biacore 8K), 37 C, antibody captured on anti-mouse Fc; same values as in Table 36; 37 C; hDLL3 ECD construct.
From the text: as §1
Table 36 lists the calculated binding kinetics (KD). […]

The target in a further assay is T4, recombinant human DLL1 (human, UniProt O00548 18-540, limits assumed).
T4 sequence (looked up): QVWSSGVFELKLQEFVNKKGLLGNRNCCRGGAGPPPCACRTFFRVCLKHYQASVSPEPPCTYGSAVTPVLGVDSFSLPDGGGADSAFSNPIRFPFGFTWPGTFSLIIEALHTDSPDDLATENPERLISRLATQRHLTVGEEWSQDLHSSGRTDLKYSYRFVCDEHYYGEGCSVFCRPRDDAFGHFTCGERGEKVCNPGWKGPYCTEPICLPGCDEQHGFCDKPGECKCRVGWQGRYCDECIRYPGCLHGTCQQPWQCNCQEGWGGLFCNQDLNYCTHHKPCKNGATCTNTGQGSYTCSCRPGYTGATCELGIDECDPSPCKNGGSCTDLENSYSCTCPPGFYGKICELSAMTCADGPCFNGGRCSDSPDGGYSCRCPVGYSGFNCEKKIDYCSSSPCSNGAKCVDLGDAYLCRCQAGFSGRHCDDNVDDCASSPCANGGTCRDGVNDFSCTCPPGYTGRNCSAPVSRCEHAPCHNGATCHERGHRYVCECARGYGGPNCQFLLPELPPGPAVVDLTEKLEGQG
As to the kind of experiment: ELISA, plate-bound recombinant human DLL1 (1 µg/mL), anti-mouse IgG-HRP/TMB, % of positive control max. The method in brief: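 Binding read by anti-mouse IgG-HRP with TMB substrate against wells coated with recombinant human DLL1 (1 μg/ml) or DLL4 (0.5 μg/ml) to test cross-reactivity of anti-DLL3 antibodies. Signals normalized to the corresponding positive control antibody.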

B1: murine anti-DLL3 antibody clone 5E7 (antibody, V domains shown)
VH: EVQLQQSGAELVRPGASVKLSCTASGFNIKDDYIHWVKQWPEQGLEWIGWIDSENGDTEYASKFQGKATMTADTSSNTAYLQLSGLTSEDTAVYYCTTSSYYSYDLFVYWGQGTLVTVSA
VL: DVLMTQTPLTLSVPIGQPASISCKSSQSLLHSNGKTYLNWLLQRPGQSPKLLIYLVSKLESGVPDRFSGSGSGTDFTLKISRVEAEDLGVYYCLQTTHLYTFGGGTKLEIK
notes: Murine antibody produced from a mouse hybridoma, captured on anti-mouse Fc in SPR; also called m5E7; murine 5E7
A word on the Kd: it is the free concentration of one partner at which half of the binding sites on the other are occupied at equilibrium, for simple one-to-one binding. Higher therefore signals lower affinity. In general, koff refers to the first-order rate constant of dissociation. By kon is commonly meant a measure of how fast the partners come together. Lower therefore signals slower complex formation. One may read the EC50 as the concentration at which the effect is half-maximal. In the assay with human DLL3-His, B1 returned a dissociation constant (Kd) of 1.22 nM, a koff of 0.00145 s⁻¹ and a kon of 1.19e+06 M⁻¹ s⁻¹. In addition, the EC50 in assay [1] came to 0.07 nM. Also, in assay [2], the Kd was 0.203 nM, the koff is 6.47e-05 s⁻¹ and the kon turned out to be 319000 M⁻¹ s⁻¹. Besides, the kon in assay [3] was found to be 319000 M⁻¹ s⁻¹. For the same molecule, the binding result with recombinant human DLL1 was “no binding”.
